B1: ch-Ab2 (antibody, human IgG1, kappa, V domains shown)
VH: EVQLVESGPGLVAPSQSLSITCTVSGFSLTYYGIDWVRQPPGKGLEWLGVIWGSGNTKYNSALMSRLSISKDNSKSQVFLRMNSLQSDDTAIYYCARFYEGFAYWGQGTLVTVSA
VL: AIVLTQSPSSMYASLGERVTITCKASQDINSYLSWFQQKPGKSPKTLIYRANRLVDGVPSRFSGSGSGQDYSLTISSLEYEDMGIYYCLQYDEFPLTFGVGTKLELKR
notes: also called chimeric antibody of Ab2
B2: hz-Ab2-1.1 (antibody, human IgG1, kappa, V domains shown)
VH: EVQLVESGGGLIQPGGSLRLSCAVSGFSLTYYGIDWVRQPPGKGLEWVSVIWGSGNTKYNSALKSRLTISRDNSKSTLYLQMNSLRAEDTAVYYCARFYEGFAYWGQGTLVTVSS
VL: DIQMTQSPSSLSASVGDRVTITCKASQDINSYLSWFQQKPGKAPKTLIYRANRLVEGVPSRFSGSGSGQDYTLTISSLQPEDFATYYCLQYDEFPLTFGQGTKVEIKR
notes: Humanized antibody
B3: hz-Ab2-2.1 (antibody, human IgG1, kappa, V domains shown)
VH: B2 VH
VL: B2 VL with K24R, Y71F, F94Y
notes: Humanized antibody
B4: hz-Ab2-2.2 (antibody, human IgG1, kappa, V domains shown)
VH: B2 VH with G9P, S49G, S61Y, R71K
VL: B2 VL with K24R, Y71F, F94Y
notes: Humanized antibody
B5: hz-Ab2-2.3 (antibody, human IgG1, kappa, V domains shown)
VH: QVQLQESGPGLVKPSETLSLTCTVSGFSLTYYGIDWIRQPPGKGLEWIGVIWGSGNTKYNSALKSRVTISKDNSKSQFSLKLSSVTAADTAVYYCARFYEGFAYWGQGTLVTVSS
VL: B2 VL with K24R, Y71F, F94Y
notes: Humanized antibody
B6: hz-Ab2-1.2 (antibody, human IgG1, kappa, V domains shown)
VH: B2 VH with G9P, S49G, S61Y, R71K
VL: B2 VL
notes: Humanized antibody

Where a chain is given by its changes, count along the chain named.

The target in one test is T1, Macaque Trop-2-His (macaque, UniProt P09758 27-274 (human entry)).
T1 construct: Extracellular domain of macaque Trop-2 recombinantly linked to His; also called monkey Trop-2-His protein; monkey Trop-2
T1 chain: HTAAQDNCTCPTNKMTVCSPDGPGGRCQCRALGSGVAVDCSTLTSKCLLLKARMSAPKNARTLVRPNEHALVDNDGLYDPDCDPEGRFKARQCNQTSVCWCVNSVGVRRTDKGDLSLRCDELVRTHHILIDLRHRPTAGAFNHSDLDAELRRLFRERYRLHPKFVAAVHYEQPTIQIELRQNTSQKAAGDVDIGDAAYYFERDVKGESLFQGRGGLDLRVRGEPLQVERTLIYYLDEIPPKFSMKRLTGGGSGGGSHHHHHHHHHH
Kind of test: ELISA, plate-coated macaque Trop-2-His. How it is done: (§1) After the liquid was discarded, 2% BSA (SIGMA, B2064-100G) diluted with PBS was added at 300 μL/well for blocking, and the mixture was incubated at 37° C. for 2 h. After the blocking was completed, the blocking buffer was discarded, the plate was washed 3 times with the PBST buffer (pH 7.4 PBS containing 0.1% tween-20), the antibody solution diluted in a gradient was added at 100 μL/well, and the mixture was incubated at 37° C. for 1 h. After the incubation was completed, the plate was washed 3 times with PBST, the goat anti-human IgG (H+L) (JacksonImmunoResearch, 109-035-098, 1:5000 dilution) was added at 100 μL/well, and the mixture was incubated at 37° C. for 1 h. After the plate was washed 3 times with PBST, a TMB chromogenic substrate (TIANGEN, PA107-01) was added at 100 μL/well. The mixture was incubated at room temperature for 10-15 min, and then 1 M H₂SO₄ was added at 50 μL/well to terminate the reaction. The absorbance values at 450 nm were taken using a microplate reader. The binding curves of antibodies for antigen were fitted using software, and the EC₅₀ values were calculated.
With B1, the midpoint of the response, the EC50, lay at 0.048 nM.

For B2, the 50% effective concentration (EC50) came to 0.133 nM.

The molecule B3 showed a concentration giving a half-maximal response (EC50) of 1.19 nM. Against the preceding molecule, the EC50 is about 8.9-fold higher.

Regarding B4, the EC50 was found to be 0.341 nM.

For B5, it took 0.83 nM to reach a half-maximal effect (EC50). This EC50 is about 2.4-fold higher than that of the molecule before.

B6 gave a concentration giving a half-maximal response (EC50) of 0.064 nM. This EC50 is about 13-fold lower than that of the molecule before.

A further test addresses T2, human Trop-2 (on the surface of human cell lines) (human, UniProt P09758 27-323).
T2 sequence: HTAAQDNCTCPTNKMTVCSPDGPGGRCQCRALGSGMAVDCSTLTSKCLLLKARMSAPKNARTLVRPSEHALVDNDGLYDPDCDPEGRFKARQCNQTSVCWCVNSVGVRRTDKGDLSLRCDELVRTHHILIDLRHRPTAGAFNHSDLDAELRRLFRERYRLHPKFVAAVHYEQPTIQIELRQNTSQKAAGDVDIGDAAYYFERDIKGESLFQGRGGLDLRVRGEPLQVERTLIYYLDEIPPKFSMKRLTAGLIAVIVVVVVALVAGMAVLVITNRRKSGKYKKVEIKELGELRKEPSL
Briefly: cell-based or functional assay.
With B1, the “ADCC reporter (Jurkat-CD16a v158-NFAT-luciferase), target cell H322, EC50” value (“ADCC reporter … target cell H322, EC50” for short) was 0.17 nM and the “ADCC reporter (Jurkat-CD16a v158-NFAT-luciferase), target cell HCC1806, EC50” value (“ADCC reporter … target cell HCC1806, EC50” for short) stood at 0.2 nM.

In the case of B2, the “ADCC reporter … target cell H322, EC50” value worked out at 1.45 nM and the “ADCC reporter … target cell HCC1806, EC50” value worked out at 4.1 nM.

With B6, the “ADCC reporter … target cell H322, EC50” value was found to be 0.31 nM and the “ADCC reporter … target cell HCC1806, EC50” value was 0.42 nM.

A further test addresses T2, human Trop-2 (on the surface of human …). Kind of test: flow cytometry, HCC38 cells. The method, then:
(§2) Tumor cells expressing Trop-2 were prepared into a cell suspension (0.5-1×10⁶ cells/mL) using the FACS buffer (Miltenyi Biotec, 130-091-221), and the cell suspension was added to a 96-well V-bottom plate at 100 μL/well. After centrifugation and removal of the supernatant, the test antibodies diluted with the FACS buffer to different concentrations (0.006 nM-100 nM) were each added at 50 μL/well. The mixture was incubated in the dark in a 4° C. refrigerator for 1 h. The plate was then washed 3 times with the FACS buffer by centrifugation at 300 g, and Alexa Fluor 488 goat anti-human IgG (H+L) (Bio-legend, 409304, 1:500 dilution) at working concentration was added. The mixture was incubated in the dark in a 4° C. refrigerator for 40 min. The plate was then washed 3 times with the FACS buffer by centrifugation at 300 g, the geometric mean fluorescence intensity (MFI) was measured on a Sartorius iQue3 flow cytometer, and the binding EC₅₀ values of the antibodies for tumor cells with different Trop-2 expression levels were calculated
For the molecule B1, it took 0.59 nM to reach a half-maximal effect (EC50).

B6: the response was half-maximal at 0.76 nM (EC50).

Another test shares this target. Briefly: cell-based or functional assay. This is another data set of the same source.
With B1, the “ADCC, PBMC killing (LDH), H322, EC50” value was determined as 0.01 nM; the “ADCC, PBMC killing (LDH), H322, Maximum killing (%)” value (“ADCC … H322, Maximum killing (%)” below) is 48.1%; the “ADCC, PBMC killing (LDH), HCC1806, EC50” value worked out at 0.02 nM; the “ADCC, PBMC killing (LDH), HCC1806, Maximum killing (%)” value (from here on “ADCC … HCC1806, Maximum killing (%)”) stood at 40%.

For the molecule B2, the “ADCC, PBMC killing (LDH), H322, EC50” value worked out at 0.13 nM; the “ADCC … H322, Maximum killing (%)” value is 47.8%; the “ADCC, PBMC killing (LDH), HCC1806, EC50” value amounted to 0.46 nM; the “ADCC … HCC1806, Maximum killing (%)” value worked out at 32.9%.

B6: the “ADCC, PBMC killing (LDH), H322, EC50” value amounted to 0.01 nM; the “ADCC … H322, Maximum killing (%)” value worked out at 48.4%; the “ADCC, PBMC killing (LDH), HCC1806, EC50” value was determined as 0.03 nM; the “ADCC … HCC1806, Maximum killing (%)” value came to 36.6%.

For a further test, the target named is T3, human Trop-2-His (human, UniProt P09758 27-274, limits assumed).
T3 construct: by analogy with the macaque construct it is probably the extracellular domain with a His tag; also called Trop-2-His protein
T3 sequence: T1 chain with V36M, N67S, V204I
Kind of test: SPR (Biacore 8K), antibody captured, Trop-2-His as analyte. From the text: The affinity of antibodies for human Trop-2-His was detected in the form of antibody capturing. The antibody was affinity-captured by a CM5 (Cat. #29149603, GE) biosensor chip conjugated with an anti-human IgG antibody (from human antibody capture kit, Cat. #29234600, GE), then the antigen human Trop-2-His flowed on the surface of the chip, and a Biacore 8K instrument was used for detecting reaction signals in real time to obtain association and dissociation curves. After dissociation was completed for each assay cycle, the chip was washed clean and regenerated with a regeneration buffer, 3M MgCl₂ (from human antibody capture kit, Cat. #29234600, GE). The association and dissociation curves were collected by Biacore 8K Control Software 3.0 in real time, and the data were analyzed by Biacore Insight Evaluation Software 3.0. The data were fitted using a Langmuir 1:1 model after double subtraction (namely, in each cycle, the contrast channel signal was subtracted from the experimental channel signal, and the sample signal was subtracted from the blank signal), and the association rate constant Ka, the dissociation rate constant Kd, and the equilibrium constant KD were calculated.
Consider B2, for which the Kd came out at 47.8 nM, the koff was found to be 0.0029 s⁻¹ and the association rate constant (kon) was determined as 60600 M⁻¹ s⁻¹.

As for B3, the Kd worked out at 0.686 nM, the koff turned out to be 0.00023 s⁻¹ and the association rate constant (kon) came out at 336000 M⁻¹ s⁻¹.

Regarding B4, the dissociation constant (Kd) amounted to 2.41 nM, the koff was found to be 0.00059 s⁻¹ and the kon was 245000 M⁻¹ s⁻¹.

B5: the affinity, expressed as Kd, was 2.72 nM; the koff amounted to 0.000643 s⁻¹; the on-rate constant (kon) came out at 237000 M⁻¹ s⁻¹.

Turning to B6, binding was put at a Kd of 1.43 nM, the koff stood at 0.00508 s⁻¹ and the kon was 3.56e+06 M⁻¹ s⁻¹.

Another test deals with T2, human Trop-2 (on the surface of human …). Briefly: flow cytometry, HCC1806 cells. How it is done: as §2
B1 came in with an EC50 of 0.78 nM. That is a sub-nanomolar value.

With B6, the EC50 was found to be 0.9 nM.

The next test deals with T3, human Trop-2-His. Kind of test: ELISA, plate-coated human Trop-2-His. How it is done:
as §1, with “with” for “with the”
Molecule B1 yielded an EC50 of 0.085 nM.

Take B2: the midpoint of the response, the EC50, lay at 0.082 nM.

In turn, B3 returned an EC50 of 1.08 nM.

The molecule B4 came in with an EC50 of 0.218 nM.

For B5, it took 0.359 nM to reach a half-maximal effect (EC50).

B6 came in with a concentration giving a half-maximal response (EC50) of 0.076 nM.
